Experimental data published in a protein production outcome set (Wang et al. 2014).

Test: label from the status in PepcDB records

Sequence | protein production
MRRLALLFPVLALLVGVWAFPLLGPLFRHGAVPNPFALKEPFTLLVYGSSPEYVEYHKRAPERFRGLADTILLVRLDPGANRVVVLSVPRDVWVLLPGHGWHKVNAASPLGGPELMKEAVARITGVRPDRYVVVSLEALRRGVDALGGVRVCVEKPMRYQDQAAGLVIDLEPGCQVLSGAQAEGYLRFRKDALGDIGRIQRQQAFFHALKDQLFSLPGLLRLPRAVAAVEPYVATDLTRGEKGALLGFLLRRPAFVSLLLPGRFAGGWAVDEAAWARLRAVYFEDREAWGEALAGKRAVVLFGPGQGALAQEAAERLKALGLSVSLRELALAPERTEVLENGPGRLAQALGEALGVPYRVSGEAALGADLTLRLGREGLPR | failed
MSLTIGVIGKSVHPYWSQVEQGVKAAGKALGVDTKFFVPQKEDINAQLQMLESFIAEGVNGIAIAPSDPTAVIPTIKKALEMGIPVVTLDTDSPDSGRYVYIGTDNYQAGYTAGLIMKELLGGKGKVVIGTGSLTAMNSLQRIQGFKDAIKDSEIEIVDILNDEEDGARAVSLAEAALNAHPDLDAFFGVYAYNGPAQALVVKNAGKVGKVKIVCFDTTPDILQYVKEGVIQATMGQRPYMMGYLSVTVLYLMNKIGVQNTLMMLPKVKVDGKVDYVIDTGVDVVTPENLDEYLKKMEELGIPIKEGHHHHHH | not failed
MDVFSEILNGIGRLLLQPALYVGIILVIIAGFNRVKWERKSFSISIYSPWLELKNFFGVSLLFGLVLSIITTLIGFSVMIEWIAIFNAVACFLLIVGMFRLSSTAFTIGITSLIFYFCYYFDVNLSPFTNLEFTYDAIFIDNFMISMTFLLAILLFVEAFLIQYTSAKNPSPSLRKSKRGKLVGSFQLRKLWFVPLVVFIPGDVFTKIFEWWPVFTIGSESYSLIILPLFIGFQQQVQAQLPEEASKKIAVQVTTLATIIAVAGLIGIVMPVLTLFAFMFAVIGRFWISYRHYRSEQLLPKKFGPQPDGLVVLGARESTPSTRLNLKAGEKITEVNGQKVHNREELYEALNLNRAFCKLKVIDNAGEPRFEQTALYENESFELGLLLVEPR | failed
MGETVVRDAVTIGKPAEQLYAVWRDLPGLPLLMTHLRSVEVLDDKRSRWTVEAPAPLGTVSWEAELTADEPGKRIAWRSLPGARIENSGEVLFRPAPGARGTEVVVRLTYRPPGGSAGAVIARMFNQEPSQQLRDDLMRFKREQELGLEHHHHHH | not failed
MSNKLLLVFALIGIIVVFSCGLFLPIPIGYRVSMLTAGVIMSVVFSIIIPFDRKHIVRKKGNKIDFTKTKVYFRWNVFDTISVCLALYACICVQVLIFLVPMGFTIQNPYVQFFTNQSQLWVFIAIAYLISRISLTLKGIKEIKNHGADWD | failed
MADIINNIVGGRYYILELIGRGGSAIVYKARDIHNGGIYALKKYITSDPANRKRLLEGMERELEVLKNCTHPVLPKIFDLIKIEDAFFLVMEYIDGIDLKKYVDEYGTLSTKMLIKVMEQVCSGFYYLHSLSPAIVYRDLKPANIILCKDGRIKLIDFGIAKRYRTDIDVDKLALGSKGFAAPEQFGDSKGKGLYNTDIRADIYGIGTTMYYLKTAKTYNSVPGSKSLYSFKDYFKTSHKLRKIIKKCTKNNPDLRYQSCIEILCSIKTLHIIGK | failed
MIRIDSVTKRYPDGTVAVDRLSLEIPDRSITVLVGPSGCGKTTTLRMINRMVEPSEGTILLDGADITKQPVNTLRRSMGYVIQNAGLFQHRTIVDNIATVPRMLGWGKERARSRARELMERVGLDASLARRYPYQLSGGQQQRVGVARALASDPPVLLMDEPFSAVDPVVRKGLQEELLRIQDELGKTIVFVTHDIDEAIRLGTMVAVMRTGGHLAQFAPPAELLSAPADAFVEDFLGTDRGIRRLSFFPSAGLELLTTPVVAIDSTAEQIAARGTPDVPYLLVTDVDGKALGWSEPKDLTAGKVVPERLLPYGRPFESGKDSLRAALDCAVLSPTGWAVAVDGTGRVVGVVSQETIGEAIRGAHAERRKADLAGLEHHHHHH | not failed
